These results are taken from patent publication US20170183396A1 (published 2017).

Experiment [1] deals with ZEBOV GP (Zaire ebolavirus) (UniProt Q05320). Put plainly: affinity for recombinant ZEBOV GP; method not described.
Experiment [2] concerns the target T1, ZEBOV GP (Zaire ebolavirus, UniProt Q05320 33-650).
T1 sequence: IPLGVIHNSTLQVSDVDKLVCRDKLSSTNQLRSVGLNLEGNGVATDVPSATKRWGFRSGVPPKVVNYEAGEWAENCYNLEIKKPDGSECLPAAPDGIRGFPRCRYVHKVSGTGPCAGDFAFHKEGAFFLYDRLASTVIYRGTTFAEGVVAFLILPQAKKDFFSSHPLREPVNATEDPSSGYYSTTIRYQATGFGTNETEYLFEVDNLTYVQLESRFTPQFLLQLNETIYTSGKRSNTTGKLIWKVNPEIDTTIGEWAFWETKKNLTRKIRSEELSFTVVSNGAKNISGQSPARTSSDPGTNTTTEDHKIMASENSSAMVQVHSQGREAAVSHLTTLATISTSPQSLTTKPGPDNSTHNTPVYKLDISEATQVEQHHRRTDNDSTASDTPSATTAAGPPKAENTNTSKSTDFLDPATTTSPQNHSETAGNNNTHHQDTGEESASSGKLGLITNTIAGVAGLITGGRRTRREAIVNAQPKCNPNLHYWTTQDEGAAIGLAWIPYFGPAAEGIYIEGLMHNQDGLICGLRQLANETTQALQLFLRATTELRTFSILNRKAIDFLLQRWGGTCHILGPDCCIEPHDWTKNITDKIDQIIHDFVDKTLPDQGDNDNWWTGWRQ
The description is as above.

As to USAMRIID mAb 13F6 (antibody), the Kd in experiment [1] came to 0.33 nM.

B1: CAN9G1 monoclonal antibody (antibody, V domains shown)
VH: ERQLVESGGGVVKPGESLKLSCAASGFAFSSYDMSWVRQTPEKRLEWVAYSSRGGGFTYYPDTVKGRFTIARDNAKNTLHLQMSSLKSEDTAMYYCATHYYGPLYAMDYWGQGTSVTVSS
VL: QLVLTQSSSASFSLGASAKLTCTLSSQHSTFTIEWYQQQPLKAPKYVMELKKDGSHSTGDGIPDRFSGSSSGADRYLWISNIQPEDEAMYICGVGDTIKEQFVYVFGGGTKVTVL
Consider B1, for which the Kd in experiment [2] amounted to 0.27 nM.
